Article PMC5034320, “Modulation of yeast telomerase activity by Cdc13 and Est1 in vitro”

Columns and labels:
[1] = target: T1, Cdc13 (Saccharomyces cerevisiae, UniProt P32797 1-924); test: EMSA; 20-80 nM Cdc13, 30 nM DNA; EMSA: room temperature 5 min (30 C in Fig 5E), 30 nM DNA, 6% native gel, buffer not stated; DMS footprint: 50 mM cacodylate pH 7.0, 25 C 10 min, then 0.05% DMS; settings: protein: recombinant, tags: 6xHis
T1 sequence: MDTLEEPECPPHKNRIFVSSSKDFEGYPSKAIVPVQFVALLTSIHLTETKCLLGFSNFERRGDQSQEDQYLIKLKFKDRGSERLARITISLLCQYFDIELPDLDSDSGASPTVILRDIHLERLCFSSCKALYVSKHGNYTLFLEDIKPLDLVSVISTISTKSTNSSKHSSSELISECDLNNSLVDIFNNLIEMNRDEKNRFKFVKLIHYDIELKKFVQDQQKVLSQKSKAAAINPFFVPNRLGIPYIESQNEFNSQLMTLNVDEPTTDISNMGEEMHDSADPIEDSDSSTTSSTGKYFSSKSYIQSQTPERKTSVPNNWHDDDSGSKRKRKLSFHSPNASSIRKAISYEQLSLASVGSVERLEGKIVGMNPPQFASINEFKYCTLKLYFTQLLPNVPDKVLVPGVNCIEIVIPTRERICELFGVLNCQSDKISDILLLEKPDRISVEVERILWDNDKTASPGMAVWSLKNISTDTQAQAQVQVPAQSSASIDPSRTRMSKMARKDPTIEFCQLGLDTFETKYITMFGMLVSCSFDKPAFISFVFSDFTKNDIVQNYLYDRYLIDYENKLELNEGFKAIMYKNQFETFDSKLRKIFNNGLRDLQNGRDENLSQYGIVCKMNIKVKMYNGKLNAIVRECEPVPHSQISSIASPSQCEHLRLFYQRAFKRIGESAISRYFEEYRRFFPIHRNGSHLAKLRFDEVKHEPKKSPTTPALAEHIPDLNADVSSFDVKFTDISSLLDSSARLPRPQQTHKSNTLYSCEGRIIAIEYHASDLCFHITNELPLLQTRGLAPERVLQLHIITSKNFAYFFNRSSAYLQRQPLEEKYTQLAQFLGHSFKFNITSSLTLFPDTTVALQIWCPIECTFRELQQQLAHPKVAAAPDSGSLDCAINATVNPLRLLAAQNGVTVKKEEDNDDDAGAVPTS

[2] = target: T2, Cdc13-BD (Saccharomyces cerevisiae, UniProt P32797 451-693); test: EMSA; 20-80 nM protein, 30 nM DNA; second BD molecule binds; EMSA: room temperature 5 min (30 C in Fig 5E), 30 nM DNA, 6% native gel, buffer not stated; DMS footprint: 50 mM cacodylate pH 7.0, 25 C 10 min, then 0.05% DMS; settings: protein: recombinant; tags: 6xHis; label: 5'-32P; single strand
T2 sequence: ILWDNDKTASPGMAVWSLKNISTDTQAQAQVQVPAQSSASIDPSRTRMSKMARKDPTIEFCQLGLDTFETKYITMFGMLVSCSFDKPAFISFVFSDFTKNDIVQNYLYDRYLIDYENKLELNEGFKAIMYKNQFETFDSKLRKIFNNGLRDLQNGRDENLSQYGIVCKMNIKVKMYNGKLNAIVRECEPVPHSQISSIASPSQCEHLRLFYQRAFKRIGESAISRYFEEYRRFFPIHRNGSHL

[3] = target: T3, Cdc13-2 (Saccharomyces cerevisiae, UniProt P32797 1-924, E252K); test: EMSA; affinity similar to wild-type Cdc13; EMSA: room temperature 5 min (30 C in Fig 5E), 30 nM DNA, 6% native gel, buffer not stated; DMS footprint: 50 mM cacodylate pH 7.0, 25 C 10 min, then 0.05% DMS; settings: protein: recombinant; tags: 6xHis; chain copies: 2; label: 5'-32P on T21; 3' overhang 15 nt (T21 strand)
T3 sequence: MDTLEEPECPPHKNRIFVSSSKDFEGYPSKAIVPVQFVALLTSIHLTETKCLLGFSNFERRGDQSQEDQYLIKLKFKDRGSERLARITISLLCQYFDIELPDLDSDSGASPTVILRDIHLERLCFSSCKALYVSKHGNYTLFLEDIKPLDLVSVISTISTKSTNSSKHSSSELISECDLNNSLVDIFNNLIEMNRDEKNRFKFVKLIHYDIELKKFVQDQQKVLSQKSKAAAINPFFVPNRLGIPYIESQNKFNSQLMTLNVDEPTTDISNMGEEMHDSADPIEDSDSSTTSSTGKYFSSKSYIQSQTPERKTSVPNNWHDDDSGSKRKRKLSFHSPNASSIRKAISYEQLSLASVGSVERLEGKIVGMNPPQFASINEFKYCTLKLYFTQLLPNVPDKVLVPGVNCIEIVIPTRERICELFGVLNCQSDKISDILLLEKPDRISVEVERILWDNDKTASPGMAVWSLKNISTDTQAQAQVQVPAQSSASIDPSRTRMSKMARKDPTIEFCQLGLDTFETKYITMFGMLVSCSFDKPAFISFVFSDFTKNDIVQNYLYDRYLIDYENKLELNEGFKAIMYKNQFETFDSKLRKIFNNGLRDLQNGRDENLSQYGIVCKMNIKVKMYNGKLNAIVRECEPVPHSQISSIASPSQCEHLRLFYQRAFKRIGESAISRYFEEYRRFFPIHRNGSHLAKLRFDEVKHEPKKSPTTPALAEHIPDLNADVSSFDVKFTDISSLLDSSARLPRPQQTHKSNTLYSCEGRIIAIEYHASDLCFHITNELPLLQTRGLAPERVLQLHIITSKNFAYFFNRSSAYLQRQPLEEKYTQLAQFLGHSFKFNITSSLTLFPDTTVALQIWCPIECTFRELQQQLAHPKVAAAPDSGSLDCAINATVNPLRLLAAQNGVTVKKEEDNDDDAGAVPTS

[4] = target: T4, Est1-TAP (Saccharomyces cerevisiae, UniProt P17214 1-699); test: EMSA; Est1-TAP alone; no stable complex; EMSA: room temperature 5 min (30 C in Fig 5E), 30 nM DNA, 6% native gel, buffer not stated; DMS footprint: 50 mM cacodylate pH 7.0, 25 C 10 min, then 0.05% DMS; settings: protein: recombinant; label: 5'-32P on T21; 3' overhang 15 nt (T21 strand)
T4 sequence: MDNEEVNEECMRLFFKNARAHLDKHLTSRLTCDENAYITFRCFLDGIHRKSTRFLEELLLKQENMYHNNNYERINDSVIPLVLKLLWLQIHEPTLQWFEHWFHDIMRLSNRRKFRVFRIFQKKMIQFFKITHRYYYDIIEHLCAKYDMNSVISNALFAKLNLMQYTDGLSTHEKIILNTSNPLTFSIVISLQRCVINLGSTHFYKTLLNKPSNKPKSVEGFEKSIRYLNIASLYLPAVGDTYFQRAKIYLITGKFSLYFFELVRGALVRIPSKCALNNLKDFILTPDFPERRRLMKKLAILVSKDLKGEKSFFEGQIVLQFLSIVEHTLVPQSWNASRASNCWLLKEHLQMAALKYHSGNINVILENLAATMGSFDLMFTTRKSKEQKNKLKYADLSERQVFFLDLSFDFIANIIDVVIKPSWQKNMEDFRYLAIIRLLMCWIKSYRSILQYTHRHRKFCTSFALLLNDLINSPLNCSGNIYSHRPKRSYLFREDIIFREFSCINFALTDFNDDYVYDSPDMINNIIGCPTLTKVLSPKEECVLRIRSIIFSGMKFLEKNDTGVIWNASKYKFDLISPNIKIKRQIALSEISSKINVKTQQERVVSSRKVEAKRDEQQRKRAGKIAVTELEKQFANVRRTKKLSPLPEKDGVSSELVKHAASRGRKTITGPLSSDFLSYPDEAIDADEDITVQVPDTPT

ATGGCTAGGTAGCCGAATTGCGTAGGTGGGTGTGGTGTGTGTGGG (ssDNA) [T21]
binding result ([1]; label: 5'-32P, single strand): binds | binding result [2]: binds

B1: T21/C20 tailed duplex (mixed)
DNA 1: ATGGCTAGGTAGCCGAATTGCGTAGGTGGGTGTGGTGTGTGTGGG
DNA 2: CCCACCTACGCAATTCGGCTACCTAGCCAT
modifications: 3'-NH2 on C20
binding result [3]: binds | binding result ([1]; chain copies: 2, label: 5'-32P on T21, 3' overhang 15 nt (T21 strand)): binds | binding result [4]: no binding
